Assay results as given in publication PMC9893541.

Molecular target: T1, GDF5 homodimer (human) (UniProt P43026)
T1 sequence: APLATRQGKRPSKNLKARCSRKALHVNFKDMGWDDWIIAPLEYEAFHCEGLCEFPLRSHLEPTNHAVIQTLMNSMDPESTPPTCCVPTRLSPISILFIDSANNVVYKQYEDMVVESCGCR

Chain of Noggin (Q13253 28-232): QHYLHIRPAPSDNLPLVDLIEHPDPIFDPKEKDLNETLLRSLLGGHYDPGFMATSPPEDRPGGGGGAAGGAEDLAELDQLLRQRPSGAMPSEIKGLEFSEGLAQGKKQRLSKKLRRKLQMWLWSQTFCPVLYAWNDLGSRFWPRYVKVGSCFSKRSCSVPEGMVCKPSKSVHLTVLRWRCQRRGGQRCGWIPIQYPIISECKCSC

IC50 of inhibition of signalling by 5 nM GDF5, luciferase reporter in BRITER osteoblast cells [nM]	Substance
38	Gremlin-2 (from UniProt O88273 22-168) (natural protein)
42	Noggin (from UniProt Q13253 28-232) (natural protein)
